According to US20240059769A1 (BIOLOJIC DESIGN, published 2024):
Residue numbers refer to the chain shown, from its start. Each block holds one binder with its values, some of them ahead of it.

Key:
[1] = biological target: T1, recombinant human IL-13 (human, UniProt P35225 35-146); test: SPR
T1 construct: also called rh-IL-13; hIL-13

[2] = biological target: T2, human TSLP (human, UniProt Q969D9 29-159); test: SPR
T2 construct: also called hTSLP; rhTSLP

[3] = biological target: hTSLP-His (human, UniProt Q969D9 29-159, limits assumed); test: cell-based or functional assay
[4] = biological target: T1, recombinant human IL-13; test: cell-based or functional assay

T1 sequence (P35225 35-146 limits assumed): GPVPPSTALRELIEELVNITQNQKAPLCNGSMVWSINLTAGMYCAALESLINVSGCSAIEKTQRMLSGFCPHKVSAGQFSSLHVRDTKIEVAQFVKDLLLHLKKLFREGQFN

B1: BDG38.091 (antibody, V domains shown)
VH: QMQLVESGGGVVQPGRSLTLSCAASGFEFRTYGMHWVRQAPGKGLEWLGVIWYDGSNTHYADSVKGRFTITRDNSKNTLNLQMNSLRVEDTAVYYCVRAPQWYLTAEAFDLWGQGTMVTVSS
VL: SYILTQPPSVSVAPGETATITCGGNLIGSRLVHWYQQKPGQAPVLVIYDDSDRPSRIPERFSGSNIGNTATLTISDVEAGDEADYYCQVWDHYSNHYVFGGGTKLTVL
notes: IgG1
Kd [1]: 60.4 pM | koff [1]: 0.000216 s⁻¹ | kon [1]: 3.57e+06 M⁻¹ s⁻¹ | Kd [2]: 62.1 pM | koff [2]: 8.67e-05 s⁻¹ | kon [2]: 1.4e+06 M⁻¹ s⁻¹ | IC50 [pM], STAT5 phosphorylation inhibition in MUTZ5 cells [3]: 0.507 pM | HEK-IL-13 [nM] (IC50, STAT6 reporter) [4]: 0.0832 nM

B2: BDG38.124 (antibody, V domains shown)
VH: B1 VH with T19R, L48V, Y53D, V88A
VL: B1 VL with S29A, H92Y, Y93S, N95D, H96T
HEK-IL-13 [nM] (IC50, STAT6 reporter) [4]: 0.0523 nM

B4: BDG38.102 (antibody, V domains shown)
VH: B1 VH with T19R, L48V, V88A
VL: B1 VL with I3V, S29A, I47V, S75E, H92Y, Y93S, H96T
HEK-IL-13 [nM] (IC50, STAT6 reporter) [4]: 0.0421 nM

B5: BDG38.095 (antibody, V domains shown)
VH: B1 VH with L48V, N57A, V88A
VL: B1 VL with I3V, E16Q, N25A, I47V, D76R, A79E, H92Y, N95D, H96S
HEK-IL-13 [nM] (IC50, STAT6 reporter) [4]: 0.0822 nM

B6: BDG38.089 (antibody, V domains shown)
VH: B1 VH with T19R, L48V, N57A
VL: B1 VL with S29A, D76R, A79E, Y93S
HEK-IL-13 [nM] (IC50, STAT6 reporter) [4]: 0.075 nM

B7: BDG38.109 (antibody, V domains shown)
VH: B1 VH with T19R, L48V, V88A
VL: B1 VL with E16Q, S29A, S75E, D76R, A79E, H92Y, Y93S, H96S
HEK-IL-13 [nM] (IC50, STAT6 reporter) [4]: 0.063 nM

B8: BDG38.108 (antibody, V domains shown)
VH: B1 VH with T19R, L48V, V88A
VL: B1 VL with S29A, A79E, H92Y, H96S
HEK-IL-13 [nM] (IC50, STAT6 reporter) [4]: 0.0659 nM

B9: BDG38.086 (antibody, V domains shown)
VH: B1 VH with T19R, L48V, V88A
VL: B1 VL with I3V, E16Q, T19R, S29A, I47V, A79E, H92Y, Y93S, H96T
IC50 [pM], STAT5 phosphorylation inhibition in MUTZ5 cells [3]: 830 pM | HEK-IL-13 [nM] (IC50, STAT6 reporter) [4]: 0.0174 nM

B11: BDG38.084 (antibody, V domains shown)
VH: B1 VH with T19R, E28A, L48V, G49A, Y53D, V88A
VL: SYVLTQPPSVSVAPGETATITCGGNLIGAYLVHWYQQKPGQAPVLVVYDDVDRPDRIPERFSGSNSGNTATLTISRVEAGDEADYYCQVWDHSTNTMVFGGGTKLTVL
HEK-IL-13 [nM] (IC50, STAT6 reporter) [4]: 0.0419 nM

B12: BDG38.122 (antibody, V domains shown)
VH: B1 VH with T19R, L48V, G49A, Y53D, V88A
VL: B1 VL with S29A, D76R, A79E, H92Y, Y93S, N95D, H96S
HEK-IL-13 [nM] (IC50, STAT6 reporter) [4]: 0.079 nM

B13: BDG38.121 (antibody, V domains shown)
VH: B1 VH with T19R, L48V, V88A
VL: B1 VL with S29A, D76R, H92Y, Y93S, H96T
HEK-IL-13 [nM] (IC50, STAT6 reporter) [4]: 0.0562 nM

B14: BDG38.143 (antibody, V domains shown)
VH: B1 VH with T19R, L48V, Y53D, N57A
VL: B1 VL with E16Q, N25A, S29A, D76R, A79E, H92Y, Y93S, H96T
HEK-IL-13 [nM] (IC50, STAT6 reporter) [4]: 0.0438 nM

B17: BDG38.142 (antibody, V domains shown)
VH: B1 VH with L48V, G49A, Y53D, V88A
VL: SYILTQPPSVSVAPGQTATITCGGNLIGAKLVHWYQQKPGQAPVLVVYDDSDRPSRIPERFSGSNIGNTATLTIERVEEGDEADYYCQVWDYYSHTMVFGGGTKLTVL
HEK-IL-13 [nM] (IC50, STAT6 reporter) [4]: 0.0584 nM

B18: BDG38.097 (antibody, V domains shown)
VH: B1 VH with T19R, N57A, V88A
VL: B1 VL with S29A, S75E, D76R, A79E, H92Y, N95D
HEK-IL-13 [nM] (IC50, STAT6 reporter) [4]: 0.0464 nM

B19: BDG38.123 (antibody, V domains shown)
VH: B1 VH with T19R, L48V, G49A, Y53D, V88A
VL: B1 VL with S29A, H92Y, Y93S, N95D, H96T
HEK-IL-13 [nM] (IC50, STAT6 reporter) [4]: 0.044 nM

B22: BDG38.133 (antibody, V domains shown)
VH: B1 VH with T19R, L48V, G49A, Y53D, V88A
VL: B1 VL with S29A, D76R, H92Y, Y93S, N95D, H96T
HEK-IL-13 [nM] (IC50, STAT6 reporter) [4]: 0.029 nM

B23: BDG38.104 (antibody, V domains shown)
VH: B1 VH with L48V, N57A, V88A
VL: B1 VL with S29A, S75E, A79E, H92Y, N95D, H96S
HEK-IL-13 [nM] (IC50, STAT6 reporter) [4]: 0.0381 nM

B25: BDG38.099 (antibody, V domains shown)
VH: B1 VH with T19R, L48V, V88A
VL: B1 VL with T19R, S29A, S75E, A79E, H92Y, Y93S, N95D, H96S
HEK-IL-13 [nM] (IC50, STAT6 reporter) [4]: 0.0601 nM

B26: BDG38.103 (antibody, V domains shown)
VH: B1 VH with T19R, L48V
VL: B1 VL with I3V, E16Q, S29A, I47V, A79E, H92Y, H96S
HEK-IL-13 [nM] (IC50, STAT6 reporter) [4]: 0.084 nM

B28: BDG38.141 (antibody, V domains shown)
VH: B1 VH with T19R, L48V, G49A, Y53D, V88A
VL: B1 VL with N25A, A79E, H92Y, Y97M
HEK-IL-13 [nM] (IC50, STAT6 reporter) [4]: 0.0824 nM

B31: BDG38.120 (antibody, V domains shown)
VH: B1 VH with T19R, L48V, G49A, Y53D, V88A
VL: B1 VL with S29A, I66S, H92Y, Y93S, N95D, Y97M
IC50 [pM], STAT5 phosphorylation inhibition in MUTZ5 cells [3]: 0.232 pM | HEK-IL-13 [nM] (IC50, STAT6 reporter) [4]: 0.265 nM

B35: BDG38.115 (antibody, V domains shown)
VH: B1 VH with V88A
VL: B1 VL with E16Q, S29A, I66S, A79E, H92Y, Y93S, H96T
notes: IgG1
Kd [1]: 125 pM | koff [1]: 0.000455 s⁻¹ | kon [1]: 3.63e+06 M⁻¹ s⁻¹ | Kd [2]: 840 pM | koff [2]: 0.000532 s⁻¹ | kon [2]: 634000 M⁻¹ s⁻¹ | IC50 [pM], STAT5 phosphorylation inhibition in MUTZ5 cells [3]: 300 pM | HEK-IL-13 [nM] (IC50, STAT6 reporter) [4]: 0.0664 nM

The next lines start with the values.

HEK-IL-13 [nM] (IC50, STAT6 reporter) [4]: 0.0662 nM
B3: BDG38.119 (antibody, V domains shown)
VH: B1 VH with T19R, L48V, V88A
VL: B1 VL with S29A, D76R, A79E, H92Y, Y93S, H96T

HEK-IL-13 [nM] (IC50, STAT6 reporter) [4]: 0.0236 nM
B10: BDG38.085 (antibody, V domains shown)
VH: B1 VH with L48V
VL: B1 VL with I3V, S29A, S75E, D76R, H92Y, Y93S, H96S

HEK-IL-13 [nM] (IC50, STAT6 reporter) [4]: 0.0646 nM
B15: BDG38.130 (antibody, V domains shown)
VH: B1 VH with E28A, L48V, G49A, Y53D
VL: B1 VL with S29A, S75E, D76R, H92Y, Y93S, H96S

HEK-IL-13 [nM] (IC50, STAT6 reporter) [4]: 0.0486 nM
B16: BDG38.088 (antibody, V domains shown)
VH: B1 VH with L48V
VL: B1 VL with I3V, S29A, H92Y, Y93S, H96T

HEK-IL-13 [nM] (IC50, STAT6 reporter) [4]: 0.0989 nM
B20: BDG38.114 (antibody, V domains shown)
VH: B1 VH with L48V
VL: B1 VL with E16Q, S29A, S75E, A79E, H92Y, Y93S, S94A, H96S

HEK-IL-13 [nM] (IC50, STAT6 reporter) [4]: 0.151 nM
B21: BDG38.136 (antibody, V domains shown)
VH: B1 VH with T19R, G49A, V88A, L104N, T105S
VL: B17 VL with I3V, T19R, V47I, R56H, I66S, E75S, E79A, Y93S, H95D

HEK-IL-13 [nM] (IC50, STAT6 reporter) [4]: 0.0284 nM
B24: BDG38.113 (antibody, V domains shown)
VH: B1 VH with L48V, V88A
VL: B1 VL with I3V, S29A, S75E, A79E, H92Y, Y93S, N95D, H96S

HEK-IL-13 [nM] (IC50, STAT6 reporter) [4]: 0.0403 nM
B27: BDG38.101 (antibody, V domains shown)
VH: B1 VH with T19R, L48V, N57A
VL: B1 VL with S29A, D76R, A79E, H92Y, Y93S, H96T

HEK-IL-13 [nM] (IC50, STAT6 reporter) [4]: 0.134 nM
B29: BDG38.105 (antibody, V domains shown)
VH: B1 VH with L48V
VL: B1 VL with I3V, S29A, S75E, D76R, H92Y, H96S

HEK-IL-13 [nM] (IC50, STAT6 reporter) [4]: 0.0402 nM
B30: BDG38.093 (antibody, V domains shown)
VH: B1 VH with L48V, V88A
VL: B17 VL with I3V, T19R, K30R, V47I, Y93S, S94A, H95D, T96S, M97Y

HEK-IL-13 [nM] (IC50, STAT6 reporter) [4]: 0.0545 nM
B32: BDG38.111 (antibody, V domains shown)
VH: B1 VH with L48V, Y53D, N57A
VL: B1 VL with I3V, N25A, S29A, I47V, D76R, H92Y, S94A, H96S

HEK-IL-13 [nM] (IC50, STAT6 reporter) [4]: 0.0801 nM
B33: BDG38.100 (antibody, V domains shown)
VH: B1 VH with T19R, L48V
VL: B1 VL with I3V, T19R, S29A, S75E, D76R, A79E, H92Y, H96S

Kd [1]: 74.2 pM | koff [1]: 0.000427 s⁻¹ | kon [1]: 5.75e+06 M⁻¹ s⁻¹ | Kd [2]: 129 pM | koff [2]: 0.000298 s⁻¹ | kon [2]: 2.31e+06 M⁻¹ s⁻¹ | IC50 [pM], STAT5 phosphorylation inhibition in MUTZ5 cells [3]: 0.295 pM | HEK-IL-13 [nM] (IC50, STAT6 reporter) [4]: 0.0299 nM
B34: BDG38.110 (antibody, V domains shown)
VH: B1 VH with T19R, L48V, G49A, Y53D, V88A
VL: B1 VL with A18T, T19R, S29A, R30K, S75E, H92Y, Y93S, Y97M
notes: IgG1

Kd [1]: 2.74 pM | koff [1]: 2.02e-05 s⁻¹ | kon [1]: 7.36e+06 M⁻¹ s⁻¹ | Kd [2]: 151 pM | koff [2]: 8.16e-05 s⁻¹ | kon [2]: 541000 M⁻¹ s⁻¹ | IC50 [pM], STAT5 phosphorylation inhibition in MUTZ5 cells [3]: 0.508 pM | HEK-IL-13 [nM] (IC50, STAT6 reporter) [4]: 0.0943 nM
B36: BDG38.107 (antibody, V domains shown)
VH: B1 VH with L48V, V88A
VL: B17 VL with K30R, V47I, Y93S, H95D, T96S, M97Y
notes: IgG1

Kd [1]: 23.9 pM | koff [1]: 0.000138 s⁻¹ | kon [1]: 5.8e+06 M⁻¹ s⁻¹ | Kd [2]: 27.5 pM | koff [2]: 0.000237 s⁻¹ | kon [2]: 8.6e+06 M⁻¹ s⁻¹ | IC50 [pM], STAT5 phosphorylation inhibition in MUTZ5 cells [3]: 68.8 pM | HEK-IL-13 [nM] (IC50, STAT6 reporter) [4]: 0.0884 nM
B37: BDG38.098 (antibody, V domains shown)
VH: B1 VH with L48V, G49A, Y53D, H59V
VL: B17 VL with I3V, K30R, V47I, E75S, E79A, Y93S, H95D, T96S
notes: IgG1
